Test results: patent US7060495 (AVENTIS PHARMA DEUTSCHLAND, dated 2006)

Key:
[1] = target: T1, carcinoembryonic antigen (CEA) (UniProt P06731 35-685, limits assumed); experiment: specificity enzyme activity test (refers to Example 5)
T1 construct: Tumor-associated antigen coated on microtiter plates in the specificity enzyme activity test
T1 sequence (looked up): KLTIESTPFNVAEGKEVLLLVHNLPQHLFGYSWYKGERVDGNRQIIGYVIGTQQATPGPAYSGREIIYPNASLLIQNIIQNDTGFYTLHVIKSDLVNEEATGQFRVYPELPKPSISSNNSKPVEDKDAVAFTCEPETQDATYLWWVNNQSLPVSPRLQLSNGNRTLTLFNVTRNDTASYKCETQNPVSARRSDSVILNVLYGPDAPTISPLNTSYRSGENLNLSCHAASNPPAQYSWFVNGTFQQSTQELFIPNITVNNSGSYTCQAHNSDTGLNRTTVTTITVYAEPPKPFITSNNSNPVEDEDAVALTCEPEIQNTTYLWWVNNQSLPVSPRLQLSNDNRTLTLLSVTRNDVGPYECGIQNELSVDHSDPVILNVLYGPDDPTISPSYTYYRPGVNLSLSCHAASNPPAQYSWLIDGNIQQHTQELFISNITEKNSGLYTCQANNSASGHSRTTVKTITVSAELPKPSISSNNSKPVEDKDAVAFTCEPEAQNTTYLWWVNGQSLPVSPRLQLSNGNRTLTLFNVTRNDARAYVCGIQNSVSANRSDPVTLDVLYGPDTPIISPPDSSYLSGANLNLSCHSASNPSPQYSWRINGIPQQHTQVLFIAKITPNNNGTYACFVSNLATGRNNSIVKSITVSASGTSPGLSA

[2] = target: T2, polymorphic epithelial mucin (PEM) (UniProt P15941 24-1097, limits assumed); experiment: specificity enzyme activity test: antigen-coated plate, bound fusion protein detected by its β-glucuronidase activity on 4-methylumbelliferyl β-glucuronide
T2 construct: Control antigen in the specificity enzyme activity test
T2 sequence (P15941 24-1097 limits assumed): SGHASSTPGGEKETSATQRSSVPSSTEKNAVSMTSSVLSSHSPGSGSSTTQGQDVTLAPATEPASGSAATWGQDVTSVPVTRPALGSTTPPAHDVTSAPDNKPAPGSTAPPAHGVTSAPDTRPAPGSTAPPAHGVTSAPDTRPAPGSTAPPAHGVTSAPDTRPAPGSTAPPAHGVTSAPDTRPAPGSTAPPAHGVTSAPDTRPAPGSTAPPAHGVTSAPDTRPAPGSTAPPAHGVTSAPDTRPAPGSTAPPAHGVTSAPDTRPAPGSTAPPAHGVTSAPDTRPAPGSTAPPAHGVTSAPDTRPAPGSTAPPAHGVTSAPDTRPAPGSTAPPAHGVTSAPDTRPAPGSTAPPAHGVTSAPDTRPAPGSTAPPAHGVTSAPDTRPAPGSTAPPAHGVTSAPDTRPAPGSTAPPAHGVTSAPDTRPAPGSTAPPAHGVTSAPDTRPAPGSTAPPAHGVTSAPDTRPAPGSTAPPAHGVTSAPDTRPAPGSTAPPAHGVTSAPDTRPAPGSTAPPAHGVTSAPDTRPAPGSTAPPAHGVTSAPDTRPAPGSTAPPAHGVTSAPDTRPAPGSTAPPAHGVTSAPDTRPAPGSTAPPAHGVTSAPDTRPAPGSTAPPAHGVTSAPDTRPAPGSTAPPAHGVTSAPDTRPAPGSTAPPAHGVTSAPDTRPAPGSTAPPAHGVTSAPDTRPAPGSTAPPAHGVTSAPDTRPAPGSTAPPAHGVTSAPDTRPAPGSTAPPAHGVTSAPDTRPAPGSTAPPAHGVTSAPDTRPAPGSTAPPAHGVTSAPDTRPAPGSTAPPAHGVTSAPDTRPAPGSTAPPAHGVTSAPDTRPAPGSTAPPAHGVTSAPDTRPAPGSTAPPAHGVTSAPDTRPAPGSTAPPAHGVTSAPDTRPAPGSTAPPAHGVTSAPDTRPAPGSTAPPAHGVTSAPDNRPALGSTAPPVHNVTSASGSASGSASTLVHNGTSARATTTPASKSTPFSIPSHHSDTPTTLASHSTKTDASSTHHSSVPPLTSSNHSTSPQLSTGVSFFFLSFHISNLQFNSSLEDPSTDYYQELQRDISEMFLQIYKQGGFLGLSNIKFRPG

B1: sFv-huβ-Gluc fusion protein (humanized sFv 431/26 against CEA linked via a hinge to human β-glucuronidase, expressed in BHK cells) (other)
chain: QVQLQESGPGLVRPSQTLSLTCTVSGFTISSGYSWHWVRQPPGRGLEWIGYIQYSGITNYNPSLKSRVTMLVDTSKNQFSLRLSSVTAADTAVYYCAREDYDYHWYFDVWGQGTTVTVSSGGGGSGGGGSGGGGSDIQLTQSPSSLSASVGDRVTITCSTSSSVSYMHWYQQKPGKAPKLLIYSTSNLASGVPSRFSGSGSGTDFTFTISSLQPEDIATYYCHQWSSYPTFGQGTKLEIKELKTPLGDTTHTCPRCPAAAAVQGGMLYPQESPSRECKELDGLWSFRADFSDNRRRGFEEQWYRRPLWESGPTVDMPVPSSFNDISQDWRLRHFVGWVWYEREVILPERWTQDLRTRVVLRIGSAHSYAIVWVNGVDTLEHEGGYLPFEADISNLVQVGPLPSRLRITIAINNTLTPTTLPPGTIQYLTDTSKYPKGYFVQNTYFDFFNYAGLQRSVLLYTTPTTYIDDITVTTSVEQDSGLVNYQISVKGSNLFKLEVRLLDAENKVVANGTGTQGQLKVPGVSLWWPYLMHERPAYLYSLEVQLTAQTSLGPVSDFYTLPVGIRTVAVTKSQFLINGKPFYFHGVNKHEDADIRGKGFDWPLLVKDFNLLRWLGANAFRTSHYPYAEEVMQMCDRYGIVVIDECPGVGLALPQFFNNVSLHHHMQVMEEVVRRDKNHPAVVMWSVANEPASHLESAGYYLKMVIAHTKSLDPSRPVTFVSNSNYAADKGAPYVDVICLNSYYSWYHDYGHLELIQLQLATQFENWYKKYQKPIIQSEYGAETIAGFHQDPPLMFTEEYQKSLLEQYHLGLDQKRRKYVVGELIWNFADFMTEQSPTRVLGNKKGIFTRQRQPKSAAFLLRERYWKIANETRYPHSVAKSQCLENSPFT
modifications: glycosylated (galactose, mannose and other carbohydrates, Table 2)
notes: scFv-enzyme fusion
B1: binds [1]; no binding [2].
